Laboratory results taken from paper PMC11043367.

T1: Flag-tagged PeV-A1 virus particles
T1 chain 1: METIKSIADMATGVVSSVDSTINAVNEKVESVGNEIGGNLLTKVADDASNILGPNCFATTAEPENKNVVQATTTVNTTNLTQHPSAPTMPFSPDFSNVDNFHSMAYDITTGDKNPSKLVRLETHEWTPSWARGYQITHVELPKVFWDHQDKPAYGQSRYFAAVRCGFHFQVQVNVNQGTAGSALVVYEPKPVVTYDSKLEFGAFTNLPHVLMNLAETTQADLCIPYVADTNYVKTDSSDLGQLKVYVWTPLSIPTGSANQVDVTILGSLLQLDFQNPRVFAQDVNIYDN
T1 chain 2: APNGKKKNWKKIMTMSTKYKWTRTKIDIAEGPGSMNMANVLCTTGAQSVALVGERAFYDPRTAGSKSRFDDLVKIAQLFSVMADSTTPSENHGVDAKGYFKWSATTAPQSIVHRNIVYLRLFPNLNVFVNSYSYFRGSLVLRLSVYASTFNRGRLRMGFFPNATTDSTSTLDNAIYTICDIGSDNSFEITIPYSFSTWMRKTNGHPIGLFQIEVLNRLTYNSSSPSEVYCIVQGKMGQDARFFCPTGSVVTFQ
T1 chain 3: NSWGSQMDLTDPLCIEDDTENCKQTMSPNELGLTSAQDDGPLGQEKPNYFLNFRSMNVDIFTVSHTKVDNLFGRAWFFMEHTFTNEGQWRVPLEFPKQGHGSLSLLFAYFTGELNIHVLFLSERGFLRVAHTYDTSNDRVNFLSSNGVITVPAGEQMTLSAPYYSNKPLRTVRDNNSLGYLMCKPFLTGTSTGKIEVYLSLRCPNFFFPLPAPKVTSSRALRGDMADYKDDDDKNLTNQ


Tests used:
[1] = target: human parechovirus 1 (PeV-A1) particles, Harris strain; test: co-immunoprecipitation with anti-HA beads, RT-qPCR of viral RNA; settings: IP, read off a plot
[2] = target: T1, Flag-tagged PeV-A1 virus particles; test: pH-dependent virus particle binding assay (anti-HA immunoprecipitation), RT-qPCR of viral RNA; settings: chain shown with the change, read off a plot

Molecule	response (relative to Vero) ([1]; 0 min after infection, parent: est. 25)	response (relative to Vero) ([1]; 15 min after infection, 37 °C, parent: est. 52)	response (relative to Vero) ([1]; 30 min after infection, 37 °C, parent: est. 60)	response (relative to Vero) ([2]; virus particle IP buffer pH 5.5, parent: est. 3.0)	response (relative to Vero) ([2]; virus particle IP buffer pH 6.0, parent: est. 6.2)	response (relative to Vero) ([2]; virus particle IP buffer pH 6.5, parent: est. 5.3)	response (relative to Vero) ([2]; virus particle IP buffer pH 7.4, parent: est. 1.1)
human MYADM (myeloid-associated differentiation marker), HA-tagged (from UniProt Q96S97) D276E; V277H; S278N	5	1.5	5	–	–	–	–
human MYADM (myeloid-associated differentiation marker), HA-tagged, Q96S97 D276E; V277H; S278N (protein) MPVTVTRTTITTTTTSSSGLGSPMIVGSPRALTQPLGLLRLLQLVSTCVAFSLVASVGAWTGSMGNWSMFTWCFCFSVTLIILIVELCGLQARFPLSWRNFPITFACYAALFCLSASIIYPTTYVQFLSHGRSRDHAIAATFFSCIACVAYATEVAWTRARPGEITGYMATVPGLLKVLETFVACIIFAFISDPNLYQHQPALEWCVAVYAICFILAAIAILLNLGECTNVLPIPFPSFLSGLALLSVLLYATALVLWPLYQFDEKYGGQPRRSREHNCSRSHAYYVCAWDRRLAVAILTAINLLAYVADLVHSAHLVFVKV	–	–	–	1	1	1	1.1
